Reference: article PMC3572265 (Pediatric diabetes, 2012)

Legend:
[1] = plasma insulin pharmacokinetics during euglycemic clamp; assay type: in vivo, human; conditions: Without InsuPatch activation, 0.2 unit/kg s.c. bolus, mean±SEM
[2] = tested on: adolescents with type 1 diabetes; experiment: euglycemic clamp, pharmacodynamics; assay type: in vivo, human; conditions: difference with vs without InsuPatch activation; 0.2 u/kg bolus

Q: Which results are given for aspart insulin?
A: time to reach maximum increments in plasma insulin [1]: 67 ± 10 min; TGIRmax earlier with IP activation than without [2]: 35 min
